Experimental data published in publication PMC9482650, “Quantitative fragmentomics allow affinity mapping of interactomes” (Nature Communications, 2022).

T1: APBA1_1, Q02410
T1 sequence (Q02410 651-752, limits assumed, looked up): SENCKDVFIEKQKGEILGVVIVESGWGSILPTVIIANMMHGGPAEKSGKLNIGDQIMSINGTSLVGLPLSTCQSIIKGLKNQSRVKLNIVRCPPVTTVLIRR

T2: DFNB31_2, Q9P202
T2 sequence (Q9P202 274-371, limits assumed, looked up): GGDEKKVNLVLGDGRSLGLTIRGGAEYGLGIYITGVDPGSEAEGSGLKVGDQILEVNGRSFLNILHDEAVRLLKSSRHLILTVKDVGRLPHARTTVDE

T3: FRMPD1, Q5SYB0
T3 sequence (Q5SYB0 52-145, limits assumed, looked up): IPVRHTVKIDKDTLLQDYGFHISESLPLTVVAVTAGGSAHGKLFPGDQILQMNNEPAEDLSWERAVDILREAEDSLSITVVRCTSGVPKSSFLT

T4: GRIP1_5, Q9Y3R0
T4 sequence (Q9Y3R0 568-668, limits assumed, looked up): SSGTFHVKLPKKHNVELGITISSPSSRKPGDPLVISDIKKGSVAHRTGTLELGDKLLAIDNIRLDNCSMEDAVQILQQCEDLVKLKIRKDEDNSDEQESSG

T5: TIAM2, Q8IVF5
T5 sequence (Q8IVF5 885-986, limits assumed, looked up): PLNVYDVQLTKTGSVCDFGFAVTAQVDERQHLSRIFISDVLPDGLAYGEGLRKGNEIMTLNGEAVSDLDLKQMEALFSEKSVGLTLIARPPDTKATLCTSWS

T6: MPDZ_10, O75970
T6 sequence (O75970 1624-1722, limits assumed, looked up): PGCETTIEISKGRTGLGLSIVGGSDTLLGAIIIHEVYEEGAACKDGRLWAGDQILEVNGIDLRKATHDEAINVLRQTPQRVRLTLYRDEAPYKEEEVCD

T7: HTRA3, P83110
T7 sequence (P83110 354-453, limits assumed, looked up): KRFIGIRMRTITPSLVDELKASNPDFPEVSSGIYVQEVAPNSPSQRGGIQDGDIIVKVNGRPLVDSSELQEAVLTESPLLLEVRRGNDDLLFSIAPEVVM

T8: APBA1_2, Q02410
T8 sequence (Q02410 742-832, limits assumed, looked up): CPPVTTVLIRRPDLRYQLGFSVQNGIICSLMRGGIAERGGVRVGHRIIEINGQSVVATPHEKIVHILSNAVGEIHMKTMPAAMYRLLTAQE

T9: TJP3_3, O95049
T9 sequence (O95049 375-456, limits assumed, looked up): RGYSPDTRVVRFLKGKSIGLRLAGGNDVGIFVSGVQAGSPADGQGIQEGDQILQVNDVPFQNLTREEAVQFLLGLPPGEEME

T10: HTRA4, P83105
T10 sequence (P83105 378-476, limits assumed, looked up): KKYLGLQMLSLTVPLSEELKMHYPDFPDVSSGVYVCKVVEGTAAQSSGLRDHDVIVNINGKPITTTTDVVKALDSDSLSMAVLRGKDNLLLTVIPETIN

T11: GRIP1_4, Q9Y3R0
T11 sequence (Q9Y3R0 467-571, limits assumed, looked up): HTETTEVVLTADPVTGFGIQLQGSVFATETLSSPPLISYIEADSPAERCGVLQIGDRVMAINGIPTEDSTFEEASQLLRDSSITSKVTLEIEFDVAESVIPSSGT

T12: PDZRN3_1, Q9UPQ7
T12 sequence (Q9UPQ7 244-349, limits assumed, looked up): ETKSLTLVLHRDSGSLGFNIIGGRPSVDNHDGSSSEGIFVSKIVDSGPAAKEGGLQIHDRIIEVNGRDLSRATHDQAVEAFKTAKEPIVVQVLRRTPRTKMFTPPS


Tests used:
Assay in all cases: holdup assay
Design in all cases: key: below the threshold = too weak to quantify, mostly under pKd 3.1 to 4
Conditions in all cases: plain residues with an end cap or a label only (N-terminal biotin on a linker: ahx)
GIPC2, Q8TF65 = target: GIPC2, Q8TF65
APBA1_1, Q02410 = target: T1, APBA1_1, Q02410
DFNB31_2, Q9P202 = target: T2, DFNB31_2, Q9P202
TJP2_1, Q9UDY2 = target: TJP2_1, Q9UDY2
FRMPD1, Q5SYB0 = target: T3, FRMPD1, Q5SYB0
Inadl_2, Q8NI35 = target: Inadl_2, Q8NI35
DLG4_3, P78352 = target: DLG4_3, P78352
GRIP1_5, Q9Y3R0 = target: T4, GRIP1_5, Q9Y3R0
MAGI2_4, Q86UL8 = target: MAGI2_4, Q86UL8
TIAM2, Q8IVF5 = target: T5, TIAM2, Q8IVF5
HTRA1, Q92743 = target: HTRA1, Q92743
NOS1, P29475 = target: NOS1, P29475
MPDZ_10, O75970 = target: T6, MPDZ_10, O75970
HTRA3, P83110 = target: T7, HTRA3, P83110
GOPC, Q9HD26 = target: GOPC, Q9HD26
NHERF4_1, Q86UT5-2 = target: NHERF4_1, Q86UT5-2
Inadl_3, Q8NI35 = target: Inadl_3, Q8NI35
Inadl_4, Q8NI35 = target: Inadl_4, Q8NI35
SCRIB_2, Q14160 = target: SCRIB_2, Q14160
APBA1_2, Q02410 = target: T8, APBA1_2, Q02410
SCRIB_3, Q14160 = target: SCRIB_3, Q14160
TJP3_3, O95049 = target: T9, TJP3_3, O95049
HTRA4, P83105 = target: T10, HTRA4, P83105
GRIP1_4, Q9Y3R0 = target: T11, GRIP1_4, Q9Y3R0
Inadl_1, Q8NI35 = target: Inadl_1, Q8NI35
PDZRN3_1, Q9UPQ7 = target: T12, PDZRN3_1, Q9UPQ7

Chain of MAGI2_4, Q86UL8 (Q86UL8 772-865): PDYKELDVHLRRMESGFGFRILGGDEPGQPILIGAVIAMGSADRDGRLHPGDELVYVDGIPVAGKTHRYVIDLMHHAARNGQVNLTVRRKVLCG
Chain of NHERF4_1, Q86UT5-2 (Q86UT5 other isoform, or with tags, fused parts or gaps): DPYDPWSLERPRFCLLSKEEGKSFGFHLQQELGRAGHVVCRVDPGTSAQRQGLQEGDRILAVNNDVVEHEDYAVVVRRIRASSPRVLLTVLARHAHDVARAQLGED
Chain of GIPC2, Q8TF65 (Q8TF65 112-203): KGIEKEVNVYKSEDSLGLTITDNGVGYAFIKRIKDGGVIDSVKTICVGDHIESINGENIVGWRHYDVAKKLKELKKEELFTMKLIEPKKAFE
Chain of HTRA1, Q92743 (Q92743 360-477): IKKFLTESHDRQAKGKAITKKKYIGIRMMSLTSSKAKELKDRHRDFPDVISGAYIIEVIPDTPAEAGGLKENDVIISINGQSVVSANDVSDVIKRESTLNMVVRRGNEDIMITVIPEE
Chain of Inadl_3, Q8NI35 (Q8NI35 359-469): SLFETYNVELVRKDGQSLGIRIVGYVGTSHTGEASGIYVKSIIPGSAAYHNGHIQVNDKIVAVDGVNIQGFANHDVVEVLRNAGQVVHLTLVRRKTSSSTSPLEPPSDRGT
Chain of Inadl_4, Q8NI35 (Q8NI35 547-651): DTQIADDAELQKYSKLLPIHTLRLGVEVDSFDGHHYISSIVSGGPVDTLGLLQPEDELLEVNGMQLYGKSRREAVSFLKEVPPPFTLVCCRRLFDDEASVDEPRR
Chain of DLG4_3, P78352 (P78352 306-403): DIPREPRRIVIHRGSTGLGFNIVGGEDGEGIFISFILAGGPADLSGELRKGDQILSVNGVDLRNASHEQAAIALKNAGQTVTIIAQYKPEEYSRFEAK
Chain of SCRIB_3, Q14160 (Q14160 999-1103): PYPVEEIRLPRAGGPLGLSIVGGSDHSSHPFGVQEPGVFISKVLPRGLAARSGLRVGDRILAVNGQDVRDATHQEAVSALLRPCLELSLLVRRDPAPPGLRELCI
Chain of SCRIB_2, Q14160 (Q14160 857-960): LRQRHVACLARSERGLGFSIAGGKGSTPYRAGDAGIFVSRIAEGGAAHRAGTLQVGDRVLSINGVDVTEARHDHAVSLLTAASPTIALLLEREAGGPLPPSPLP
Chain of Inadl_2, Q8NI35 (Q8NI35 238-335): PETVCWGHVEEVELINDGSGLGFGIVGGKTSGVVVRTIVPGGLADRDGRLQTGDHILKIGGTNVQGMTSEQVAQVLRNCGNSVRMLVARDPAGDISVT
Chain of Inadl_1, Q8NI35 (Q8NI35 113-229): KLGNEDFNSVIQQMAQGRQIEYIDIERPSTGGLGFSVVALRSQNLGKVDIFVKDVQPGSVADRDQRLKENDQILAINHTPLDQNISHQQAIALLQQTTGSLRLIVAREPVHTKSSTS
Chain of TJP2_1, Q9UDY2 (Q9UDY2 24-128): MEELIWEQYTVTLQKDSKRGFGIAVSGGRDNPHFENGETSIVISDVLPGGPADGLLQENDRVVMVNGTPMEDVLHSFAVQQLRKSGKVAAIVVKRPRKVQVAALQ
Chain of NOS1, P29475 (P29475 9-101): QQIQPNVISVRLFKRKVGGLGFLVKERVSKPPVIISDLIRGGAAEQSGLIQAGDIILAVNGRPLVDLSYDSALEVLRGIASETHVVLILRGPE

pKd (GIPC2, Q8TF65)	pKd (APBA1_1, Q02410)	pKd (DFNB31_2, Q9P202)	pKd (TJP2_1, Q9UDY2)	pKd (FRMPD1, Q5SYB0)	pKd (Inadl_2, Q8NI35)	pKd (DLG4_3, P78352)	pKd (GRIP1_5, Q9Y3R0)	pKd (MAGI2_4, Q86UL8)	pKd (TIAM2, Q8IVF5)	pKd (HTRA1, Q92743)	pKd (NOS1, P29475)	pKd (MPDZ_10, O75970)	pKd (HTRA3, P83110)	pKd (GOPC, Q9HD26)	pKd (NHERF4_1, Q86UT5-2)	pKd (Inadl_3, Q8NI35)	pKd (Inadl_4, Q8NI35)	pKd (SCRIB_2, Q14160)	pKd (APBA1_2, Q02410)	Binder	other results
below the threshold	below the threshold	below the threshold	below the threshold	below the threshold	below the threshold	below the threshold	below the threshold	below the threshold	below the threshold	below the threshold	3.62	below the threshold	below the threshold	below the threshold	below the threshold	below the threshold	below the threshold	below the threshold	below the threshold	RAVEEEESRF [PSCDBP, O60759]	pKd (SCRIB_3, Q14160): below the threshold; pKd (TJP3_3, O95049): below the threshold; pKd (HTRA4, P83105): below the threshold; pKd (GRIP1_4, Q9Y3R0): below the threshold; pKd (Inadl_1, Q8NI35): below the threshold; pKd (PDZRN3_1, Q9UPQ7): below the threshold
below the threshold	3.49	below the threshold	below the threshold	below the threshold	below the threshold	3.56	3.55	3.49	below the threshold	3.61	below the threshold	3.75	below the threshold	3.6	3.69	3.66	below the threshold	3.71	below the threshold	HNAFLSVTTV [PDZRN4, Q6ZMN7]	pKd (SCRIB_3, Q14160): below the threshold; pKd (TJP3_3, O95049): below the threshold; pKd (HTRA4, P83105): below the threshold; pKd (GRIP1_4, Q9Y3R0): below the threshold; pKd (Inadl_1, Q8NI35): below the threshold; pKd (PDZRN3_1, Q9UPQ7): 3.56
below the threshold	below the threshold	below the threshold	below the threshold	below the threshold	below the threshold	below the threshold	below the threshold	below the threshold	below the threshold	below the threshold	below the threshold	below the threshold	below the threshold	below the threshold	below the threshold	below the threshold	below the threshold	below the threshold	below the threshold	NRKREIFSNF [NHERF2, Q15599]	pKd (SCRIB_3, Q14160): below the threshold; pKd (TJP3_3, O95049): below the threshold; pKd (HTRA4, P83105): below the threshold; pKd (GRIP1_4, Q9Y3R0): below the threshold; pKd (Inadl_1, Q8NI35): below the threshold; pKd (PDZRN3_1, Q9UPQ7): below the threshold
